Measurements reported in the supplement of paper PMC7125110.
± gives the standard error. For some of these results: This sample holds only a part of the variants without activity.

B1: glmS ribozyme (parent)
chain: AUAAAAGCGCCAGAACUACAGAAAUGUAGUUGACGAGGAGGAGGUUUAUCGAAUUUUCGGCGGAUGCCUCCAAA

How the values were obtained:
Details in all cases: with glucosamine-6-phosphate
glucosamine-6-phosphate [1] = variants of: B1; test: kcat; higher = faster cleavage; RNA array
How it was run: (§1)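 Over ~14 h at 37 °C, tiles were imaged as glucosamine-6-phosphate (40 μM to 10 mM) in HEPES/KCl/Mg(OAc)2 buffer flowed across sequenced MiSeq chips. The chips carried barcoded ribozyme variants transcribed in situ by E. coli RNA polymerase and tracked with a hybridised Cy3 probe. After normalisation to baseline and to non-cleaving reference variants, one- or two-exponential decay fits of per-tile medians gave kobs. kcat and KM followed from weighted Michaelis–Menten fits across concentrations.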

glucosamine-6-phosphate [2] = variants of: B1; test: self-cleavage kobs at 2500 uM GlcN6P; higher = faster cleavage; RNA array
How it was run: as §1

glucosamine-6-phosphate [3] = variants of: B1; test: self-cleavage kobs at 40 uM GlcN6P; higher = faster cleavage; RNA array
How it was run: as §1

glucosamine-6-phosphate [4] = variants of: B1; test: self-cleavage kobs at 640 uM GlcN6P; higher = faster cleavage; RNA array
How it was run: as §1

glucosamine-6-phosphate [5] = variants of: B1; test: self-cleavage kobs at 10000 uM GlcN6P; higher = faster cleavage; RNA array
How it was run: as §1

glucosamine-6-phosphate [6] = variants of: B1; test: self-cleavage kobs at 160 uM GlcN6P; higher = faster cleavage; RNA array
How it was run: as §1

glucosamine-6-phosphate [7] = variants of: B1; test: KM; higher = weaker cofactor use; RNA array
How it was run: as §1

AUAAAAGCGCCAGAACUACAGAAAUGUAGAUGACGAGGAGGAGGUUUAUCGAAUUUGCGGCGGAUGCCUCCAAA
kcat (glucosamine-6-phosphate [1]): 2.86e-05 ± 9.5e-06 s⁻¹ | self-cleavage kobs at 2500 uM GlcN6P (glucosamine-6-phosphate [2]): 3.99e-05 ± 1.7e-05 s⁻¹

AUAAAAGCGCCAGAACUACAGAAAUGUAGAUGACGAGGAGGAGGUUUAUCGAAUUUACGGCGGAUGCCUCCAAA
kcat (glucosamine-6-phosphate [1]): 6.66e-05 ± 1.8e-05 s⁻¹ | self-cleavage kobs at 40 uM GlcN6P (glucosamine-6-phosphate [3]): < 1e-05 s⁻¹ | self-cleavage kobs at 640 uM GlcN6P (glucosamine-6-phosphate [4]): 3.87e-05 ± 1.5e-05 s⁻¹ | self-cleavage kobs at 2500 uM GlcN6P (glucosamine-6-phosphate [2]): 3.73e-05 ± 1.2e-05 s⁻¹ | self-cleavage kobs at 10000 uM GlcN6P (glucosamine-6-phosphate [5]): 6.84e-05 ± 1.4e-05 s⁻¹

AUAAAAGCGCCAGAACUACAGAAAUGUAGUUGACGAGGAGGAGGUUUAUCGAAUUUUCGGCGGAUGCCGUCAAA
kcat (glucosamine-6-phosphate [1]): 4.03e-05 ± 6.8e-06 s⁻¹ | self-cleavage kobs at 160 uM GlcN6P (glucosamine-6-phosphate [6]): 4.73e-05 ± 1.4e-05 s⁻¹ | self-cleavage kobs at 640 uM GlcN6P (glucosamine-6-phosphate [4]): 4.66e-05 ± 9.6e-06 s⁻¹ | self-cleavage kobs at 2500 uM GlcN6P (glucosamine-6-phosphate [2]): 5.03e-05 ± 8.5e-06 s⁻¹ | self-cleavage kobs at 10000 uM GlcN6P (glucosamine-6-phosphate [5]): 2.88e-05 ± 6.8e-06 s⁻¹

AUAAAAGCGCCAGUACUACAGAAAUGUAGUUGACGAGGAGGAGGUUUAUCGAAUUUUCGGCGGGUGCCUCCAAA
kcat (glucosamine-6-phosphate [1]): 0.00805 ± 0.003 s⁻¹ | KM (glucosamine-6-phosphate [7]): 2740 ± 1300 µM | self-cleavage kobs at 40 uM GlcN6P (glucosamine-6-phosphate [3]): 0.000177 ± 2.5e-05 s⁻¹ | self-cleavage kobs at 160 uM GlcN6P (glucosamine-6-phosphate [6]): 0.000391 ± 4.2e-05 s⁻¹ | self-cleavage kobs at 640 uM GlcN6P (glucosamine-6-phosphate [4]): 0.00143 ± 0.00016 s⁻¹ | self-cleavage kobs at 2500 uM GlcN6P (glucosamine-6-phosphate [2]): 0.00635 ± 0.00079 s⁻¹ | self-cleavage kobs at 10000 uM GlcN6P (glucosamine-6-phosphate [5]): 0.00568 ± 0.00075 s⁻¹

AUAAAAGCGCCAGAACUACAGAAAUGUAGUUGACGAGGAGGAGGUUUAUCGCAUUUUCGGCGGAUGCUUCCAAA
kcat (glucosamine-6-phosphate [1]): 1.28e-05 ± 5.9e-07 s⁻¹ | KM (glucosamine-6-phosphate [7]): 249 ± 86 µM | self-cleavage kobs at 40 uM GlcN6P (glucosamine-6-phosphate [3]): < 1e-05 s⁻¹

AUAAAAGCGCCAGAACUACAGAAAUGUAGUUGACGAGGAGGCGGUUUAUCGAAUUUUCGCCGGAUGCCUCCAAA
kcat (glucosamine-6-phosphate [1]): < 1e-05 s⁻¹ | self-cleavage kobs at 40 uM GlcN6P (glucosamine-6-phosphate [3]): < 1e-05 s⁻¹ | self-cleavage kobs at 160 uM GlcN6P (glucosamine-6-phosphate [6]): < 1e-05 s⁻¹ | self-cleavage kobs at 640 uM GlcN6P (glucosamine-6-phosphate [4]): < 1e-05 s⁻¹

AUAAAAGCGCCAGAACUACAGAAAUGUAGUUGACGAGGAGGUGGUUUAUCGAAUUUUCGGCGGAUGCCUCAAAA
kcat (glucosamine-6-phosphate [1]): 0.000146 ± 7.1e-05 s⁻¹ | self-cleavage kobs at 2500 uM GlcN6P (glucosamine-6-phosphate [2]): 3.16e-05 ± 8.6e-06 s⁻¹ | self-cleavage kobs at 10000 uM GlcN6P (glucosamine-6-phosphate [5]): 8.25e-05 ± 2.2e-05 s⁻¹

AUAAAAGCGACAGAACUACAGAAAUGUAGUUGACGAGCAGGAGGUUUAUCGAAUUUUCGGCGGAUGCCUCCAAA
kcat (glucosamine-6-phosphate [1]): < 1e-05 s⁻¹ | self-cleavage kobs at 160 uM GlcN6P (glucosamine-6-phosphate [6]): < 1e-05 s⁻¹ | self-cleavage kobs at 640 uM GlcN6P (glucosamine-6-phosphate [4]): < 1e-05 s⁻¹

AUAAAAGCGCCUGAACUACAGAAAUGUAGUUGACGAGGAGGUGGUUUAUCGAAUUUUCGGCGGAUGCCUCCAAA
kcat (glucosamine-6-phosphate [1]): 0.000531 ± 7.4e-05 s⁻¹ | KM (glucosamine-6-phosphate [7]): 1240 ± 330 µM | self-cleavage kobs at 160 uM GlcN6P (glucosamine-6-phosphate [6]): 5.09e-05 ± 7.4e-06 s⁻¹ | self-cleavage kobs at 640 uM GlcN6P (glucosamine-6-phosphate [4]): 0.000198 ± 1.9e-05 s⁻¹ | self-cleavage kobs at 2500 uM GlcN6P (glucosamine-6-phosphate [2]): 0.000402 ± 3.2e-05 s⁻¹ | self-cleavage kobs at 10000 uM GlcN6P (glucosamine-6-phosphate [5]): 0.000411 ± 4.6e-05 s⁻¹

AUAAAAGCGCCAGAACUACAGAAAUGUAGUUGACGAGGAGUAGGUUUAUCGAAUUCUCGGCGGAUGCCUCCAAA
kcat (glucosamine-6-phosphate [1]): 3.03e-05 ± 3.2e-06 s⁻¹ | KM (glucosamine-6-phosphate [7]): 1560 ± 400 µM | self-cleavage kobs at 160 uM GlcN6P (glucosamine-6-phosphate [6]): < 1e-05 s⁻¹

AUAAAAGCGCCAGAUCUACAGAAAUGUAGUUGACGAGGAGGAGGUUUAUCGAAGUUUCGGCGGAUGCCUCCAAA
kcat (glucosamine-6-phosphate [1]): 0.00446 ± 0.00053 s⁻¹ | KM (glucosamine-6-phosphate [7]): 1730 ± 330 µM | self-cleavage kobs at 40 uM GlcN6P (glucosamine-6-phosphate [3]): 8.2e-05 ± 2.2e-05 s⁻¹ | self-cleavage kobs at 160 uM GlcN6P (glucosamine-6-phosphate [6]): 0.000411 ± 6.8e-05 s⁻¹ | self-cleavage kobs at 640 uM GlcN6P (glucosamine-6-phosphate [4]): 0.00189 ± 0.00075 s⁻¹ | self-cleavage kobs at 2500 uM GlcN6P (glucosamine-6-phosphate [2]): 0.00279 ± 0.00048 s⁻¹ | self-cleavage kobs at 10000 uM GlcN6P (glucosamine-6-phosphate [5]): 0.00368 ± 0.0005 s⁻¹

AUAAAAGCGCCAGAACUACAGAAAUGUAGUUGACGAGGAGGAGGUUUAUCGACUUUUCGGCGGAUGUCUCCAAA
kcat (glucosamine-6-phosphate [1]): 0.00119 ± 0.00012 s⁻¹ | KM (glucosamine-6-phosphate [7]): 1500 ± 230 µM | self-cleavage kobs at 40 uM GlcN6P (glucosamine-6-phosphate [3]): 4e-05 ± 6.8e-06 s⁻¹ | self-cleavage kobs at 160 uM GlcN6P (glucosamine-6-phosphate [6]): 0.000109 ± 1e-05 s⁻¹ | self-cleavage kobs at 640 uM GlcN6P (glucosamine-6-phosphate [4]): 0.000355 ± 3.8e-05 s⁻¹ | self-cleavage kobs at 2500 uM GlcN6P (glucosamine-6-phosphate [2]): 0.000692 ± 8.1e-05 s⁻¹ | self-cleavage kobs at 10000 uM GlcN6P (glucosamine-6-phosphate [5]): 0.00108 ± 0.00011 s⁻¹

AUAAAAGCGCCGGAACUACAGAAAUGUAGUUGACGAGGAGGAGGUGUAUCGAAUUUUCGGCGGAUGCCUCCAAA
kcat (glucosamine-6-phosphate [1]): 0.000475 ± 2.8e-05 s⁻¹ | KM (glucosamine-6-phosphate [7]): 9040 ± 890 µM | self-cleavage kobs at 640 uM GlcN6P (glucosamine-6-phosphate [4]): 2.82e-05 ± 1.2e-05 s⁻¹ | self-cleavage kobs at 2500 uM GlcN6P (glucosamine-6-phosphate [2]): 0.000105 ± 1.5e-05 s⁻¹ | self-cleavage kobs at 10000 uM GlcN6P (glucosamine-6-phosphate [5]): 0.000248 ± 2.3e-05 s⁻¹

AUAAAAGCGCCAGCACUACAGAAAUGUAGUUGACGAGGGGGAGGUUUAUCGAAUUUUCGGCGGAUGCCUCCAAA
kcat (glucosamine-6-phosphate [1]): 0.0127 ± 0.0026 s⁻¹ | KM (glucosamine-6-phosphate [7]): 3770 ± 970 µM | self-cleavage kobs at 40 uM GlcN6P (glucosamine-6-phosphate [3]): 0.000147 ± 1.6e-05 s⁻¹ | self-cleavage kobs at 160 uM GlcN6P (glucosamine-6-phosphate [6]): 0.000352 ± 0.00017 s⁻¹ | self-cleavage kobs at 640 uM GlcN6P (glucosamine-6-phosphate [4]): 0.00155 ± 0.0003 s⁻¹ | self-cleavage kobs at 2500 uM GlcN6P (glucosamine-6-phosphate [2]): 0.0051 ± 0.00078 s⁻¹ | self-cleavage kobs at 10000 uM GlcN6P (glucosamine-6-phosphate [5]): 0.0095 ± 0.0016 s⁻¹

AUAAAAGCGCCAGAAGUACAGAAAUGUAGUUGACGAGGAGGAGGUUUAUCGAAUUUUCGGCGGAUGCCUACAAA
kcat (glucosamine-6-phosphate [1]): 3.75e-05 ± 1.5e-05 s⁻¹ | self-cleavage kobs at 2500 uM GlcN6P (glucosamine-6-phosphate [2]): 6.29e-05 ± 1.4e-05 s⁻¹ | self-cleavage kobs at 10000 uM GlcN6P (glucosamine-6-phosphate [5]): 2.51e-05 ± 1.1e-05 s⁻¹

AUAAAAGCCCCAGAACUACAGAAAUGUAGUUGACGAGCAGGAGGUUUAUCGAAUUUUCGGCGGAUGACCCCAAA
kcat (glucosamine-6-phosphate [1]): < 1e-05 s⁻¹

AUAAAAGCGCCAGAACUACAGAAAUGUAGUUGACGAGGAGGACGUUUAUCGAAUUUUCGGCGGAUGACUCCAAA
kcat (glucosamine-6-phosphate [1]): 0.000634 ± 8.3e-05 s⁻¹ | KM (glucosamine-6-phosphate [7]): 1520 ± 410 µM | self-cleavage kobs at 160 uM GlcN6P (glucosamine-6-phosphate [6]): 4.22e-05 ± 1.1e-05 s⁻¹ | self-cleavage kobs at 640 uM GlcN6P (glucosamine-6-phosphate [4]): 0.000205 ± 2e-05 s⁻¹ | self-cleavage kobs at 2500 uM GlcN6P (glucosamine-6-phosphate [2]): 0.000479 ± 5.7e-05 s⁻¹ | self-cleavage kobs at 10000 uM GlcN6P (glucosamine-6-phosphate [5]): 0.00052 ± 4.3e-05 s⁻¹

AUAAAAGCGCCAGAACUACAGAAAUGUAGUUGACGACGAGGAGGUUUAUCGAAUUUUAGGCGGAUACCUAAAAA
kcat (glucosamine-6-phosphate [1]): 2.19e-05 ± 8.6e-06 s⁻¹

AUAAAAGCGCCAGAACUACAGAAAUGUACUUGGCGAGGAGGAGGUUUAUCGAAUUUUCGGCGGAUGCCUCCAAA
kcat (glucosamine-6-phosphate [1]): 1.09e-05 ± 3.1e-06 s⁻¹
